Source: the supplement of paper PMC12783771
Substitutions are numbered along the chain they refer to. ± gives the standard deviation of the averaged measurements.

B1: library; a variant is named by its letters at X, in order (parent)
chain: MNIQIGELAKRTACPVVTIRFYEQEGLLPPPGRSRGNFRLYGEEHVERLQFIRHCRSLDMPLSXVRTLLSYRKRPDQDCGEVXMLLDEHXRQVESRIGALLELXHXLVELREACSGARPAQSCGILQGLSDCVCDTRGTTAHXSD
B2: library; numbered along this chain (parent)
chain: B1 chain with X64D, X83N, X90I, X104K, X106H, X143P

Columns and labels:
[1] = variants of: B1; assay: sfGFP reporter fluorescence (15 h) (µM FITC); higher = higher leak; conditions: library round: Round 3b; ligand: none
Protocol: (§1)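 Cell-free biosensing: 1 µL Echo-assembled CFE reactions with linear PbrR variant templates (5 nM) and pPbrR-sfGFP reporter, with 1 µM Pb, 30 µM Zn or no ligand; endpoint sfGFP fluorescence after 15 h at 30 °C calibrated as µM FITC. Round 3b rational combinatorial PbrR mutants; 3 biological replicates.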

[2] = variants of: B1; assay: sfGFP reporter fluorescence (15 h) (µM FITC); higher = stronger transcriptional activation; conditions: library round: Round 3b
Protocol: as §1

[3] = variants of: B2; assay: sfGFP reporter fluorescence (15 h) (µM FITC); higher = higher leak; conditions: library round: Round 0; ligand: none
Procedure, shortened: (§2)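 Values are endpoint sfGFP fluorescence given as µM FITC equivalents. Fluorescence was read at 485/528 nm on a Synergy Neo2, and FITC standard curves were prepared in 50 mM sodium borate pH 8.5. Reactions of 1 μL combined BL21 Star (DE3) PANOx-SP extract, pPbrR-sfGFP reporter, 30 μg/mL GamS and linear PbrR templates (PCR-made, Echo-normalized to 5 nM), with 1 µM lead chloride, 30 µM zinc acetate or no metal, for 15 hr at 30 °C.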

[4] = variants of: B2; assay: sfGFP reporter fluorescence (15 h) (µM FITC); higher = stronger transcriptional activation; conditions: library round: Round 0
Procedure, shortened: as §2

Variant	sfGFP reporter fluorescence [1]	sfGFP reporter fluorescence ([2]; ligand: 1 µM Pb)	sfGFP reporter fluorescence ([2]; ligand: 30 µM Zn)	sfGFP reporter fluorescence [3]	sfGFP reporter fluorescence ([4]; ligand: 1 µM Pb)	sfGFP reporter fluorescence ([4]; ligand: 30 µM Zn)
KFAKHT	0.0669 ± 0.0082	0.777 ± 0.035	0.299 ± 0.047			
KFAKHR	0.0685 ± 0.0035	0.843 ± 0.073	0.33 ± 0.014			
DIATAP	0.0413 ± 0.0051	0.087 ± 0.01	0.0433 ± 0.0057			
DIATAR	0.0427 ± 0.0029	0.0781 ± 0.014	0.0423 ± 0.0034			
DIATAT	0.0409 ± 0.0016	0.112 ± 0.0062	0.0458 ± 0.00085			
KFIKAT	0.0418 ± 0.0013	0.169 ± 0.015	0.0513 ± 0.0024			
KIATEP	0.0672 ± 0.0044	1 ± 0.062	0.0643 ± 0.0007			
KFIVET	0.0511 ± 0.0019	0.453 ± 0.057	0.094 ± 0.006			
KFIVEP	0.0475 ± 0.004	0.567 ± 0.017	0.107 ± 0.013			
KFIVER	0.0558 ± 0.0015	0.491 ± 0.0094	0.0916 ± 0.0098			
KFITET	0.0451 ± 0.0028	0.3727 ± 0.0019	0.0737 ± 0.0037			
KFITER	0.0486 ± 0.00051	0.435 ± 0.016	0.0763 ± 0.005			
KFITEP	0.0482 ± 0.0055	0.36 ± 0.014	0.0694 ± 0.0043			
KIATAP	0.0703 ± 0.0043	1.26 ± 0.096	0.0679 ± 0.006			
KIATAT	0.0691 ± 0.0019	1.29 ± 0.062	0.0697 ± 0.0016			
KIATAR	0.069 ± 0.0014	1.49 ± 0.15	0.0681 ± 0.0007			
KFIKET	0.0439 ± 0.002	0.135 ± 0.0014	0.0531 ± 0.0027			
KFIKER	0.0412 ± 0.0027	0.147 ± 0.0078	0.0496 ± 0.0038			
DIATEP	0.046 ± 0.0012	0.0616 ± 0.0042	0.0456 ± 0.0029			
KFAVAT	0.0465 ± 0.0014	0.356 ± 0.02	0.057 ± 0.0017			
KFAVAR	0.0482 ± 0.0037	0.398 ± 0.028	0.0563 ± 0.00097			
DFAVAP	0.0435 ± 0.0045	0.0535 ± 0.0046	0.0484 ± 0.0012			

Variant	sfGFP reporter fluorescence [1]	sfGFP reporter fluorescence ([2]; ligand: 1 µM Pb)	sfGFP reporter fluorescence ([2]; ligand: 30 µM Zn)	sfGFP reporter fluorescence [3]	sfGFP reporter fluorescence ([4]; ligand: 1 µM Pb)	sfGFP reporter fluorescence ([4]; ligand: 30 µM Zn)
DFAVAR	0.0466 ± 0.0033	0.0575 ± 0.0018	0.0492 ± 0.0035			
DFAVAT	0.0442 ± 0.0011	0.0558 ± 0.0015	0.0449 ± 0.0022			
DFAKAR	0.0429 ± 0.0064	0.0535 ± 0.005	0.0435 ± 0.0051			
DFAKAT	0.0421 ± 0.0041	0.0502 ± 0.0044	0.04614 ± 0.00019			
KFITAT	0.0473 ± 0.0032	0.335 ± 0.012	0.0678 ± 0.0076			
KFITAR	0.0479 ± 0.003	0.394 ± 0.028	0.0776 ± 0.0024			
KFITAP	0.0485 ± 0.0052	0.302 ± 0.022	0.0642 ± 0.0032			
DFATHR	0.0436 ± 0.0022	0.053 ± 0.0037	0.0482 ± 0.0037			
DFATHT	0.0408 ± 0.0051	0.0491 ± 0.0032	0.0448 ± 0.0049			
DFAVER	0.0402 ± 0.0024	0.0506 ± 0.0017	0.0474 ± 0.0015			
DFAVET	0.0447 ± 0.00067	0.051 ± 0.0039	0.0469 ± 0.00097			
DFAVEP	0.0418 ± 0.0019	0.0531 ± 0.0031	0.0466 ± 0.0044			
DFITAR	0.0422 ± 0.0057	0.0635 ± 0.0015	0.0455 ± 0.0024			
DFITAT	0.0436 ± 0.0017	0.0559 ± 0.004	0.0439 ± 0.00085			
DFAKER	0.044 ± 0.0022	0.0459 ± 0.002	0.0423 ± 0.00089			
DFAKET	0.037 ± 0.0032	0.0413 ± 0.00089	0.0436 ± 0.0024			
KFATET	0.0469 ± 0.0028	0.404 ± 0.017	0.0606 ± 0.0013			
KFATEP	0.0465 ± 0.0032	0.442 ± 0.0057	0.0564 ± 0.0029			
KFATER	0.0457 ± 0.0041	0.594 ± 0.024	0.0571 ± 0.014			
KIAKHT	0.0693 ± 0.0034	0.93 ± 0.043	0.152 ± 0.011			
KIAKHR	0.072 ± 0.002	1.07 ± 0.074	0.135 ± 0.017			
DIAKER	0.0433 ± 0.0047	0.0512 ± 0.0021	0.0452 ± 0.0035			

Variant	sfGFP reporter fluorescence [1]	sfGFP reporter fluorescence ([2]; ligand: 1 µM Pb)	sfGFP reporter fluorescence ([2]; ligand: 30 µM Zn)	sfGFP reporter fluorescence [3]	sfGFP reporter fluorescence ([4]; ligand: 1 µM Pb)	sfGFP reporter fluorescence ([4]; ligand: 30 µM Zn)
DIAKET	0.0419 ± 0.00078	0.0472 ± 0.0015	0.0466 ± 0.0026			
KFAVHR	0.0469 ± 0.0029	0.631 ± 0.038	0.171 ± 0.017			
KFAVHT	0.0459 ± 0.0029	0.632 ± 0.071	0.179 ± 0.029			
KFAVHP	0.0477 ± 0.002	0.656 ± 0.07	0.198 ± 0.014			
KIAKER	0.0554 ± 0.0012	0.614 ± 0.024	0.0592 ± 0.0041			
KIAKET	0.0531 ± 0.0032	0.4674 ± 0.0044	0.057 ± 0.0063			
KIAKEP	0.052 ± 0.0034	0.387 ± 0.02	0.051 ± 0.0007			
KFIVHT	0.0536 ± 0.0065	0.7 ± 0.038	0.365 ± 0.038			
KFATHP	0.0523 ± 0.0059	0.476 ± 0.041	0.112 ± 0.011			
KFATHR	0.0517 ± 0.0024	0.705 ± 0.055	0.171 ± 0.012			
KFATHT	0.0512 ± 0.0033	0.558 ± 0.011	0.137 ± 0.013			
DFITET	0.0393 ± 0.0042	0.0493 ± 0.0022	0.0433 ± 0.0032			
DFITER	0.0424 ± 0.0031	0.0522 ± 0.0026	0.0451 ± 0.0034			
DFATET	0.0435 ± 0.0019	0.0466 ± 0.0012	0.0451 ± 0.001			
DFATEP	0.041 ± 0.0024	0.0428 ± 0.0007	0.0444 ± 0.0036			
DFATER	0.044 ± 0.0013	0.0474 ± 0.0018	0.0469 ± 0.0034			
KIAKAR	0.0603 ± 0.0029	0.794 ± 0.049	0.0642 ± 0.0027			
KIAKAT	0.0563 ± 0.006	0.675 ± 0.061	0.0628 ± 0.0018			
KIAKAP	0.0576 ± 0.0074	0.674 ± 0.062	0.0578 ± 0.0037			
DFIVAT	0.0456 ± 0.0052	0.0992 ± 0.004	0.0496 ± 0.0011			
KFAKER	0.0536 ± 0.0034	0.438 ± 0.026	0.0631 ± 0.0086			
KFAKET	0.0549 ± 0.0049	0.413 ± 0.019	0.0675 ± 0.0044			

Variant	sfGFP reporter fluorescence [1]	sfGFP reporter fluorescence ([2]; ligand: 1 µM Pb)	sfGFP reporter fluorescence ([2]; ligand: 30 µM Zn)	sfGFP reporter fluorescence [3]	sfGFP reporter fluorescence ([4]; ligand: 1 µM Pb)	sfGFP reporter fluorescence ([4]; ligand: 30 µM Zn)
KFAKEP	0.0525 ± 0.0023	0.414 ± 0.015	0.0724 ± 0.0068			
KFAVER	0.0512 ± 0.0022	0.51 ± 0.029	0.056 ± 0.0049			
KFAVEP	0.0452 ± 0.0037	0.533 ± 0.03	0.0557 ± 0.0048			
KFAVET	0.0489 ± 0.0017	0.41 ± 0.071	0.0549 ± 0.0017			
DIAKAT	0.0356 ± 0.0029	0.0683 ± 0.0046	0.0346			
DIAKAR	0.0442 ± 0.0031	0.0673 ± 0.0063	0.045 ± 0.0015			
DFATAP	0.0454 ± 0.0046	0.048 ± 0.0038	0.0454 ± 0.0051			
DFATAR	0.0431 ± 0.00051	0.05286 ± 0.00019	0.0448 ± 0.0015			
DFATAT	0.0428 ± 0.0034	0.0475 ± 0.0011	0.0455 ± 0.0051			
KFATAP	0.0501 ± 0.0052	0.3845 ± 0.0014	0.0524 ± 0.00067			
KFATAT	0.0465 ± 0.0042	0.455 ± 0.007	0.056 ± 0.0037			
KFATAR	0.0492 ± 0.0024	0.462 ± 0.068	0.0554 ± 0.0012			
KFAKAT	0.0569 ± 0.0013	0.564 ± 0.039	0.0878 ± 0.0047			
KFAKAP	0.0577 ± 0.0042	0.495 ± 0.031	0.073 ± 0.0081			
KFAKAR	0.0579 ± 0.0044	0.663 ± 0.0095	0.0902 ± 0.0064			
DFAVHT	0.0401 ± 0.0051	0.0539 ± 0.001	0.0473 ± 0.0027			
DFAVHR	0.0438 ± 0.0023	0.059 ± 0.0031	0.0519 ± 0.0031			
KFITHT	0.0512 ± 0.0076	0.492 ± 0.046	0.21 ± 0.024			
KFITHR	0.0496 ± 0.0019	0.554 ± 0.021	0.25 ± 0.036			
DFIVER	0.0476 ± 0.0017	0.0836 ± 0.0022	0.0461 ± 0.001			
DFIVET	0.0435 ± 0.0054	0.0785 ± 0.0019	0.0449 ± 0.0017			
M60L D64K				0.916 ± 0.074	1.99 ± 0.24	4.629 ± 0.03
